Reference: publication PMC5446187, “USP9X counteracts differential ubiquitination of NPHP5 by MARCH7 and BBS11 to regulate ciliogenesis” (PLoS Genetics, 2017)

Columns and labels:
[1] = biological target: T1, GFP-USP9X catalytically inactive mutant (C1566S) (mouse) (mouse, UniProt P70398 1-2559, C1566S); test: co-IP; anti-Flag immunoprecipitation from lysates of HEK293 cells expressing Flag-NPHP5 or its fragments (alone or with GFP-tagged partner), Western blot; conditions: partners not purified
T1 construct: mouse USP9X C1566S cDNA (from S. Wood) sub-cloned into pEGFP-C1; pEGFP-C1 is expected to place EGFP at the N-terminus (surmise); also called GFP-USP9X mutant (C1566S); pEGFP-C1-USP9X(C1566S); source: HEK293, transfected, in lysate; also purified from HEK293 (anti-GFP immunoprecipitation, 500 mM NaCl washes, kept on beads)

[2] = biological target: T2, GFP-USP9X wild type (mouse) (mouse, UniProt P70398 1-2559); test: as above; conditions: partners not purified
T2 construct: mouse USP9X cDNA (from S. Wood) sub-cloned into pEGFP-C1; pEGFP-C1 is expected to place EGFP at the N-terminus (surmise); also called pEGFP-C1-USP9X; purified USP9X; source: HEK293, transfected, in lysate; also purified from HEK293 (anti-GFP immunoprecipitation, 500 mM NaCl washes, kept on beads)

[3] = biological target: T3, MARCH7/axotrophin, endogenous (human (endogenous in HEK293), UniProt Q9H992 1-704); test: pull-down; 1 μg purified Flag-NPHP5 mixed with 1 μg purified USP9X, BBS11 or MARCH7 bound to beads, 4°C, 2 h, extensive washing, Western blot; conditions: both partners purified
T3 construct: E3 ubiquitin ligase MARCH7/axotrophin, endogenous in HEK293; also called endogenous MARCH7; source: endogenous, HEK293 lysate; also immunoprecipitated from HEK293 with anti-MARCH7 antibody, 500 mM NaCl washes, kept on beads
T3 sequence (looked up): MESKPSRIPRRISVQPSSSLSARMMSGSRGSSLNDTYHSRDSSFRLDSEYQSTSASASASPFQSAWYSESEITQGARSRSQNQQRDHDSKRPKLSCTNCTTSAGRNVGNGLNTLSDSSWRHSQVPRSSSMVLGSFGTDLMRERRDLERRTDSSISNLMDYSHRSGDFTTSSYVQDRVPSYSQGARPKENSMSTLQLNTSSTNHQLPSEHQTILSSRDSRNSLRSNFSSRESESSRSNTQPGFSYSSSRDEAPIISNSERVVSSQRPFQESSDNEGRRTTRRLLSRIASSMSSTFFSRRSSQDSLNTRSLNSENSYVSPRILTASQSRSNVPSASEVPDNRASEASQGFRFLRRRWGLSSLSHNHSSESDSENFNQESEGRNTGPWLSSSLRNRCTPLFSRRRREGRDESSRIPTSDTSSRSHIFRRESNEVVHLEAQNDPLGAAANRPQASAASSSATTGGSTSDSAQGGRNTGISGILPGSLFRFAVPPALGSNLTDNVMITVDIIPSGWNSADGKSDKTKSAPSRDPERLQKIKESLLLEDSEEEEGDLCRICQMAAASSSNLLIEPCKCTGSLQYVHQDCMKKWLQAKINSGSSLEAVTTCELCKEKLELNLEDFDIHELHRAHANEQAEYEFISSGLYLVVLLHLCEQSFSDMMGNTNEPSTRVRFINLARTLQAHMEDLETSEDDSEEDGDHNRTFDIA

BBS11/TRIM32, endogenous = biological target: T4, BBS11/TRIM32, endogenous (human (endogenous in HEK293), UniProt Q13049 1-653); test: as above; conditions: both partners purified
T4 construct: E3 ubiquitin ligase BBS11/TRIM32, endogenous in HEK293; also called endogenous BBS11; source: endogenous, HEK293 lysate; also immunoprecipitated from HEK293 with anti-BBS11 antibody, 500 mM NaCl washes, kept on beads
T4 sequence (looked up): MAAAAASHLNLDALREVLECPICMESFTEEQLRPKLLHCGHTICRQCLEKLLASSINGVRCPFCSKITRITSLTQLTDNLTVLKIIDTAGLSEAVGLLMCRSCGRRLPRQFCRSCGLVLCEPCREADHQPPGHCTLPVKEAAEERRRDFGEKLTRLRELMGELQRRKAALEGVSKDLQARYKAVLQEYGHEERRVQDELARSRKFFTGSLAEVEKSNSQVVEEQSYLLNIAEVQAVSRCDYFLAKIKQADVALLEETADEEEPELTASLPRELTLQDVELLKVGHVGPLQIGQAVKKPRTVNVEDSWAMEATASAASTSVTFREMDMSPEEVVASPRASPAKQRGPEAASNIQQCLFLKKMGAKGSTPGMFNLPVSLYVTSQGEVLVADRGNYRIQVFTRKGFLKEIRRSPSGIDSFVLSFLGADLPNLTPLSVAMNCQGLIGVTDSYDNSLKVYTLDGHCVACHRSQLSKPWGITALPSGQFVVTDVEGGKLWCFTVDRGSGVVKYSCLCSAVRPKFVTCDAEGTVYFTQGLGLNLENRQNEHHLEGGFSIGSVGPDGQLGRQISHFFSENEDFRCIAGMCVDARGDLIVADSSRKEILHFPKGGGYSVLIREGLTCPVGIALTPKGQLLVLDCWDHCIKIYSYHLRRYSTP

Measured: binding result

T2 sequence (P70398 whole entry): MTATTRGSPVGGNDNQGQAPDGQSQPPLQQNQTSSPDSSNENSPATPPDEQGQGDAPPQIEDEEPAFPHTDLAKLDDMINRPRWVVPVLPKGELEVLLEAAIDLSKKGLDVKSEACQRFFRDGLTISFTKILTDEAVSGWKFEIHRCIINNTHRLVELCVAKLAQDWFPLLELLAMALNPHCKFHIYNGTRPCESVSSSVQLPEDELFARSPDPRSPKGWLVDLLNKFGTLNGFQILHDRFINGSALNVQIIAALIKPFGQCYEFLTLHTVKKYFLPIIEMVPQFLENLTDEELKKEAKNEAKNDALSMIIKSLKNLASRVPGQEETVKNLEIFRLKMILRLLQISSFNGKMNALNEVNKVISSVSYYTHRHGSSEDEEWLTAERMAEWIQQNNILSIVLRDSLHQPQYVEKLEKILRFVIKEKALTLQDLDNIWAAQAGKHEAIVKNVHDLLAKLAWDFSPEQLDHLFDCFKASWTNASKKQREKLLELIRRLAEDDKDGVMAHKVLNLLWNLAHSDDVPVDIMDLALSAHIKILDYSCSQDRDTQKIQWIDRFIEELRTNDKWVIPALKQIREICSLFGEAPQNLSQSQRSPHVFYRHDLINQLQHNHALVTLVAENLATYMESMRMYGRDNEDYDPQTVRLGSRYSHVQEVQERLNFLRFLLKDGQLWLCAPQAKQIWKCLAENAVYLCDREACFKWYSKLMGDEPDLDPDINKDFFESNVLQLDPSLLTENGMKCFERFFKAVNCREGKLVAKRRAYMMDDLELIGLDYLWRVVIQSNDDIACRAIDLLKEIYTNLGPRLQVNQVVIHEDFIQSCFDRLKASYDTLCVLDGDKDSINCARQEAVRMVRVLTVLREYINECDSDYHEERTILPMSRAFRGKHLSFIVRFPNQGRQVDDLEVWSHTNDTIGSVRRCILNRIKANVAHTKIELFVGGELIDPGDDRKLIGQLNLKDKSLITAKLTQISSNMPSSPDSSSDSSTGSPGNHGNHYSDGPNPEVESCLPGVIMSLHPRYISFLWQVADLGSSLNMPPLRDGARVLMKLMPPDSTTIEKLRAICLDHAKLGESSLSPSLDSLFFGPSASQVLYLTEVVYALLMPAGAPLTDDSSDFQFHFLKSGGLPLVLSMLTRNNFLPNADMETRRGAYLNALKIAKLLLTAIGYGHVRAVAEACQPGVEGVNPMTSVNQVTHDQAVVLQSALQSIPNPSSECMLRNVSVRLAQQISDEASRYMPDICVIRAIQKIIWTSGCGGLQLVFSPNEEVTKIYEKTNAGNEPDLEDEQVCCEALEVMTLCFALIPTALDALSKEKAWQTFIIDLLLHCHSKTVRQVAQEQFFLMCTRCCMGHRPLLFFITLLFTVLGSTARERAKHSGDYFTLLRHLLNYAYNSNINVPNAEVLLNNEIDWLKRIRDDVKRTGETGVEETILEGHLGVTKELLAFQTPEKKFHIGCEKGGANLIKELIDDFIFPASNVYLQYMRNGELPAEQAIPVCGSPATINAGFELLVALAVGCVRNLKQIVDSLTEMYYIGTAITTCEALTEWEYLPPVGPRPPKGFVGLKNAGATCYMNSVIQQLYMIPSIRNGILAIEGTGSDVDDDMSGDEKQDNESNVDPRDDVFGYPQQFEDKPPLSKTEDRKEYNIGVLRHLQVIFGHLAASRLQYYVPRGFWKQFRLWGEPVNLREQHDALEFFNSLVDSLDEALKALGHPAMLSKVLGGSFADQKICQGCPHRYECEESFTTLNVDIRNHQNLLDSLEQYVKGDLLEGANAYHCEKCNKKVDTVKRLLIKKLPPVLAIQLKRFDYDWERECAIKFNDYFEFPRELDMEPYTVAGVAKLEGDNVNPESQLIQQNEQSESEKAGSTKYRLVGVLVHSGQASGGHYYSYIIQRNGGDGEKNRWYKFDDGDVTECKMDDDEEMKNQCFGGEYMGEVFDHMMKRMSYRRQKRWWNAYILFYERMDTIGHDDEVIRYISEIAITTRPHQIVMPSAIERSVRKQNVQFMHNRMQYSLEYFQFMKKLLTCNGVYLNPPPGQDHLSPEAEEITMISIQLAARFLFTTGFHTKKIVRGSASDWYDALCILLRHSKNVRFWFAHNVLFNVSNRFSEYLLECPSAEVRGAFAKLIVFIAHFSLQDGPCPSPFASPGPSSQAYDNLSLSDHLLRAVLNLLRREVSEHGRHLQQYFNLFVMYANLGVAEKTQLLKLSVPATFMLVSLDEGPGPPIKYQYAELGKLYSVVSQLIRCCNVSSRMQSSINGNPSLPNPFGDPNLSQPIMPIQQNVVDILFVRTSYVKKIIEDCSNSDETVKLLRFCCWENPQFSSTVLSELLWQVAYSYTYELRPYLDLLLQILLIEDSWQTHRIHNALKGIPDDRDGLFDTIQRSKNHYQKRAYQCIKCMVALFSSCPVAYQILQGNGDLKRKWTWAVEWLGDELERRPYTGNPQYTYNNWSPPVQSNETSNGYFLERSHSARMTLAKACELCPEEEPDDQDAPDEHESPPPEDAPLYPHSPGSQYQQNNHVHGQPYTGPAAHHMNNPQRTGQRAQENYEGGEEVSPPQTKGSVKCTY
T1 sequence (P70398 whole entry C1566S, the tested form may be a part): as the sequence (P70398 whole entry) above, with C1566S counted along it

B1: Flag-NPHP5 (nephrocystin-5), full length 1-598 (natural protein, UniProt Q15051 1-598, looked up)
chain: MKPTGTDPRILSIAAEVAKSPEQNVPVILLKLKEIINITPLGSSELKKIKQDIYCYDLIQYCLLVLSQDYSRIQGGWTTISQLTQILSHCCVGLEPGEDAEEFYNELLPSAAENFLVLGRQLQTCFINAAKAEEKDELLHFFQIVTDSLFWLLGGHVELIQNVLQSDHFLHLLQADNVQIGSAVMMMLQNILQINSGDLLRIGRKALYSILDEVIFKLFSTPSPVIRSTATKLLLLMAESHQEILILLRQSTCYKGLRRLLSKQETGTEFSQELRQLVGLLSPMVYQEVEEQKLHQAACLIQAYWKGFQTRKRLKKLPSAVIALQRSFRSKRSKMLLEINRQKEEEDLKLQLQLQRQRAMRLSRELQLSMLEIVHPGQVEKHYREMEEKSALIIQKHWRGYRERKNFHQQRQSLIEYKAAVTLQRAALKFLAKCRKKKKLFAPWRGLQELTDARRVELKKRVDDYVRRHLGSPMSDVVSRELHAQAQERLQHYFMGRALEERAQQHREALIAQISTNVEQLMKAPSLKEAEGKEPELFLSRSRPVAAKAKQAHLTTLKHIQAPWWKKLGEESGDEIDVPKDELSIELENLFIGGTKPP
notes: also called IQCB1; source: HEK293, transfected, in lysate; also purified from HEK293 (anti-Flag immunoprecipitation, 500 mM NaCl washes, eluted with Flag peptide)
binds: all assays above
